This is an account of results in article PMC10478084, “Use of Epivolve phage display to generate a monoclonal antibody with opsonic activity directed against a subdominant epitope on extracellular loop 4 of Treponema pallidum BamA (TP0326)” (Frontiers in Immunology, 2023).

In experiment [1] the target is T1, BamA ECL4 peptide S2, native (Treponema pallidum subsp. pallidum, …).
T1 chain: Biotin-RVVKNFYDKDNNQPFDL

Experiment [2] concerns the target T2, Tp BamA β-barrel (TP0326) (Treponema pallidum subsp. pallidum, …, UniProt O83346).
Target sequence in this assay (O83346 434-837): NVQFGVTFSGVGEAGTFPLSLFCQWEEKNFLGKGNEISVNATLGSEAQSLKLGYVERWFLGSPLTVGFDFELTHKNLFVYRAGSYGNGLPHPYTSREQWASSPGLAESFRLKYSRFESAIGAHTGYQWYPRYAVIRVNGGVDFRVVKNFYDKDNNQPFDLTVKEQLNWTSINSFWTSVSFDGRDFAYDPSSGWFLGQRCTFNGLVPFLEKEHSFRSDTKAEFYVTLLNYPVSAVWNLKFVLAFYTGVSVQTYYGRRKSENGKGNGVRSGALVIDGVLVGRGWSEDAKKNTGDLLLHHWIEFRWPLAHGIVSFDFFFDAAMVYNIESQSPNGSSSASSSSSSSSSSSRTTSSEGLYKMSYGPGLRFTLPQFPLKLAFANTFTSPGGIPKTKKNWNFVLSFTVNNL
The target of experiment [3] is T2, Tp BamA β-barrel (TP0326). Nature of the experiment: immunoblot; 200 to 1 ng of PfTrx^BamA/ECL4 or of BamA β-barrel (in 8M urea, Laemmli buffer) resolved by SDS-PAGE, transferred to nitrocellulose, probed with mAb at 4 μg/ml. The following applies: both partners purified. In general terms: Immunoblotting shows a protein as a band on a membrane.
Target sequence in this assay (O83346 whole entry, looked up): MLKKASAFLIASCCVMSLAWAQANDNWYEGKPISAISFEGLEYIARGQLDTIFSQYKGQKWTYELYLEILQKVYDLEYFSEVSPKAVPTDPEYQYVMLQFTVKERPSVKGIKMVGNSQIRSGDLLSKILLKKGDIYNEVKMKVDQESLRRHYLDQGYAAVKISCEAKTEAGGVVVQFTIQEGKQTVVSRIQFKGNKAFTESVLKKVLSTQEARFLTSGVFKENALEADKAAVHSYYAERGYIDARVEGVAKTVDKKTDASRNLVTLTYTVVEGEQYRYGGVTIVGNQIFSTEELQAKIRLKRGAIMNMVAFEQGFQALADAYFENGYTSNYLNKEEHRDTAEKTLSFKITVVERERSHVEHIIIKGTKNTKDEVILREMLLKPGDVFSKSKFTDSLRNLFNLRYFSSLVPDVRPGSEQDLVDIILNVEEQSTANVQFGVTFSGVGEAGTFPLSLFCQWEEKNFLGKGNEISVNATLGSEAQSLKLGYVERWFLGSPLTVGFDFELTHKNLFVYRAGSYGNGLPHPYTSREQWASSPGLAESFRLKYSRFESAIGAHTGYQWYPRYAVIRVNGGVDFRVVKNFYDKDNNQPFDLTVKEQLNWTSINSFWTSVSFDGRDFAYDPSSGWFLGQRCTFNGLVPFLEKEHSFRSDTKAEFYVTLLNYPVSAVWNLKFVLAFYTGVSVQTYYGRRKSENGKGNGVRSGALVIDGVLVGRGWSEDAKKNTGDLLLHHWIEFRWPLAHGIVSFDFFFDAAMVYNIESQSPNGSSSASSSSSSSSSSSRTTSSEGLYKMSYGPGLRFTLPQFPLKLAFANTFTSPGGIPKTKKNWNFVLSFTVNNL

Read-outs that look alike come from different tables or passages of the source. No end group written: not given here. *: point of attachment. Biotin = O=C1N[C@H]2[C@H](CS[C@H]2CCCCC(=O)*)N1

B1: IGX7128 (antibody, V domains shown)
VH: EVQLVQSGADVKKPGASLTISCQASGYTFTDYWISWVRQKPGKGLEWMGAIAPSTSKTEYGPSFQGHVTISADRSTATAYLQWRSLEASDTAMYYCVRQSAQTDSWGPGTLVTVSS
VL: SYELTQPPSVSVSPGQTARITCSGDALPKKYAYWYQQKSGQAPVLVIYEDRKRYSGIPERFSGSSSGTMATLTISGAQVEDEADYYCYSKAAKGNYMVFGGGTKLTVL
For B1, the binding result in experiment [1] and in experiment [2] was “binds” each time.

B2: mAb IGX7141 (antibody, V domains shown)
VH: EVQLVQSGADVKKPGASLTISCQASGYTFTDYWISWVRQKPGKGLEWMGAISPANSRTSYGPSFQGHVTFSADRSTATAYLQWRSLEASDTAMYYCVRQGAQTDSWGPGTLVTVSS
VL: SYELTQPPSVSVSPGQTARITCSGDALPKKYAYWYQQKSGQAPVLVIYEDMKRPSGIPERFSGSSSGTMATLTISGAQVEDEADYYCYSKASDGNYFVFGGGTKLTVL
notes: heavy-chain variable region from the Epivolve scFv; mouse IgG2 heavy-chain constant region; light-chain variable region LC3; mouse light-chain constant domain; Mouse IgG2 with variable regions selected from a human scFv phage library (Epivolve) and matured by error-prone PCR; source: HEK293-E, transfected (pTT5), purified from supernatant (Protein A)
As for B2, the binding result in experiment [3] is “binds”.

B3: IGX7134 (antibody, V domains shown)
VH: EVQLVQSGAVVKKPGASLTISCQASGYTFTDYWFSWVRQKPGKGLEWMGAIAPSTSKTEYGPSFQGLVTISADRSTATANLQWRSLEASDTAMYYCVRQGAHTDSWGPGTLVTVSS
VL: SYELTQPPSVSVSPGQTARITCSGDALPKKYAYWYQQKSGQAPVLVIYEDRKRYSGIPERFSGSSSGTMATLTISGAQVEDEADYYCYSKAAKGNYMVFGGGTKLTVL
Take B3: the binding result in experiment [1] and in experiment [2] was “binds” in each case.

B4: mAb IGX7137 (antibody, V domains shown)
VH: EVQLVQSGADVKKPGASLTISCQTSGYTLTDYWISWVRQKPGKGLEWMGAISPANSRTSYGPSFQGHVTFSADRSTATAYLQWRSLEASDTAMYYCVRQGAQTDRWGPGTLVTVSS
VL: SYELTQPPSVSVPPGQTARITCSGDALPKKYAYWYQQKSGQAPVLVIYEDMKRPSGIPERFSGSSSGTTATLTISGAQVEDEADYYCYSKAFDGNYFVFGGGTKLTVL
notes: heavy-chain variable region from the Epivolve scFv; mouse IgG2 heavy-chain constant region; light-chain variable region LC2 (shared with IGX7140); mouse light-chain constant domain; Mouse IgG2 with variable regions from the Epivolve scFv; source: HEK293-E, transfected (pTT5), purified from supernatant (Protein A)
B4: the binding result in experiment [3] is listed as “binds”.

B5: mAb IGX7140 (antibody, V domains shown)
VH: EVQLVQSGADVKKPGASLTISCQASGYTLTDYWISWVRQKPGKGLEWMGAISPANSRTSYGPSFQGHVTFSADRSTATAYLQWRSLEASDTAMYYCVRQGAQTDRWGPGTLVTVSS
VL: SYELTQPPSVSVPPGQTARITCSGDALPKKYAYWYQQKSGQAPVLVIYEDMKRPSGIPERFSGSSSGTTATLTISGAQVEDEADYYCYSKAFDGNYFVFGGGTKLTVL
notes: heavy-chain variable region from the Epivolve scFv; mouse IgG2 heavy-chain constant region; light-chain variable region LC2 (as the light chain of m2); mouse light-chain constant domain; Mouse IgG2 with variable regions from the Epivolve scFv; also called IXG7140; source: HEK293-E, transfected (pTT5), purified from supernatant (Protein A)
With B5, the binding result in experiment [3] is “binds”.
